Results taken from the nanobody polyreactivity screen of Harvey et al. (2022).

Test: yeast display, Sf9 membrane polyspecificity reagent, FACS + sequencing; frameworks hold sequencing errors
Outline: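 Using colony PCR, genes from sorted yeast display clones were amplified, then sequenced on MiSeq at 2 × 250 and filtered by CDR length. The clones had been stained with 10% biotinylated, detergent-solubilized Sf9 membrane reagent for 1 hour at 4 °C and sorted by FACS into low and high (top ~1%) gates on anti-HA and streptavidin fluorescence. Polyreactivity labels come from the gate of origin.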

| Sequence | polyreactivity (PSR sort gate) |
| --- | --- |
| QVQLLESWGGLVQAGGSLRLSCAASGLIFYRNAMGWYRQAHGKERELVAAISVSGGSTYYADSVKGRFTISRDNAKNTVYLQMNRLKPEDTAVYYCAAKTWRSRGKEMDYWGQGTQVNVSS | high polyreactivity |
| QVQLVESGGGLVQAGGSLRLSCAASGRIFYRNAMGWYRQAPGTDRELVARITSSGGTTYYADSVKGRFTISRDNAKNTVYLQMNSLQPEDTAVYYCAARSVTQRKMYYWGQGTQVTVSS | high polyreactivity |
| QVQRVESGGGLVQARGSLRLSCAASGRIFTKYAMGWYRQAPGKVRELVAGITSRGGSTYYADSVKGRFTISRDIANNTGYLQMNSLKPEDTAVYYCNAYRVGRYDYWGQGTQVTVSS | high polyreactivity |
| QVQLVESGGGLVQAGGSLRLSCAASGSTFPKNAKGWYRQAPGKERELVAAINTGGSTYYADSVKGRFTISRDNAKNTVYLQINSLKPEDTAVYYCAARDNYHRDVGHPYDYWGQGTQVTVSS | low polyreactivity |
| QVQLVESGGGLVQAGGSLRLSCAASGRTFVRYAMGWYRQAPGKERELVAAISRTGGTTYYADSVKGRFTISRDNAKNTVYLQMNSLKPEDTAVYYCNADPFYKYGYWGQGTKVTVSS | high polyreactivity |
| QVQLVESGGGLVQAGGSLRLSCAASGSTFTGNVMGWYRQAPGKERELVAAIDSGATTNYADSVKGRFTISRDNAKNTVYLQINSLKPEDTAVYYCATDGLDFWFIYDYWGQGTQVTVSS | low polyreactivity |
| QVQLVESGGGLVQAGGSLRLSCAASGRIFGYYVMGWYRPAPGKERELVAAISRSGGSTYYADSVKGRFTISRDNAKNTVYLQMNSLKPEDTAVYYCAKRVSTYGFSGYDYWGQGTQVTVSS | high polyreactivity |
| QVQLVESGGGLVQAGGSLRLSCAASGSTFGSNAMGWYRQAPGKERELVAAIRGIVGSTYYADSVKGRFTISRDNAKNTVYLQMNSLKPEDTAVYYCNKAEVSTYYHTRSTYGGYDYWGQGTQVTVSS | low polyreactivity |
| QVQLVESGGGLVQAGGSLRLICAASGSTRRYVMGWYRQAPGKERELVAVISRGGSTYYADSVKGRFTISRDNAKNTVYLQMNSLKPEDTAVYYCNVQPVIPRGGDYWGQGTQVTVSS | high polyreactivity |
| QVQLVESGGGLVQAGGSLRLSCAASGFIFFFYAMGWYRQAPGKERELVASISWNGGSTYYADSVKGRFTISRDNAKNTVYLQMNSLKPEYTAVYYCAVYSFRERVKAYRIYDYWGQGTHVTVSS | low polyreactivity |
| QVQLVESGGGLVQAGGSLRLSCAASGSIFRNYAMGWSRPATGKERELVASIRYSGGRTNYADSVKGRFTISRDNAKNTVYLQMNSLKPEDTAVYYCAADPGYGWQRAYYYWGQGTQVTVSS | high polyreactivity |
| QVQLVESGGGLVQAGVRLRLSCPASGITFEGYAMGWYRKAPGKERELVAAIRSSGTSTYYADSVKGRFTISRDNAKNTVYLQMNSLKPEDTAVYYCNRARSSSRYDYWGQGTKVTVSS | low polyreactivity |
| QVQLVESGGGFVQAGGSLRLSCAATGSIFPQNAMGWYRQAPGKERELVASISSGGRTNYADSVKGRFTISRDYAKNTVYLQMNSLKPEDSAVYFCAKTRIRYKPLHFYYWGQGTQVTVSS | low polyreactivity |
| QVQLVESGGGLVQAGGSLSLICAASGSTFSQYFMGLYRQAPGKDRELVAGISSRGTSTYYADSVKGRFTISRDNAQNTFYLQMNSLKPEDTAVFYCNRGKLYNTYDYWGQGTQVNVSS | low polyreactivity |
| QVQLVESGGGLVQAGGSLRLSCAASGRIFYRNAMGWYRQAPGKERELVAAISSGGITNYADSVKGRFTISRDNAKNTVYLQMNSLKPEDTAVYYCNADAYRLPGYTFGYWGQGTQVTVSS | high polyreactivity |
| QVQLVESGGGIVQAGGSLRLLCAASGRNIINYDMGWYRQAPGKERELVAAITWSTGSTYADSVNGRFTISRDNAKNTVYLQMNSLSPEDTAVYYCAAPWGQTDDRHQGGDYWGQGTQVTVSS | low polyreactivity |
| QVQLVESGGGLVQAGGSLRLSCAASGSILFGNAMGWYRQAPGKERELVAAITVSGGSTYYADSVKGRFTISRDNAKNTVYLQMNSLKPEDTAVYYCAAGGWWHYRPQSYSGPFDYWGQGTQVTVSS | low polyreactivity |
| QVQLVASAGGLVQAGGSLRFSCAASGRSFKRYTMGWYRQAPGKERELVAAITKRADRTNYADSVKGRFTISRDNAKNTVYLQMNSLKPEDTAVYYCYADGQNDLPSNGYISYKYDYWGQGTQVTVSS | low polyreactivity |
| QVQLVESGGGLVQAGGSLLLSCAASGRIIGYYAMGLYRQAPVKERELVAAISRRGGSTYYADSVKGRFTISRDNAKNTVYLQINSLKPEDTAVYYCNADRVLTRPRYDYWGQGTQVTVSS | low polyreactivity |
| QVQLVESGGGLVQAGGSLRLSCAASGRTFVYYAMVWSRQAPGKEREFVAAISRSGGRTSYADSVKGRFTISRDNAKNTVYLQMNSLKPEDTAVYYCAAENRTQPTSREYYWGQGNQVTVSS | high polyreactivity |

| Sequence | polyreactivity (PSR sort gate) |
| --- | --- |
| QVQLVESRGGLVQAGGSLRLSCAASGYTFQRYAMGCYRQAPGKEREMVAAISWSSGTTYYADSVKGRFTISRDNAKNTVYLQMNSLKPEDTAVYYCAAAGRQSGGRFYYWGQGTQVTVSS | high polyreactivity |
| QVQLVESGGGLVQAGGSLRLSCAASGSTFKKYAMGWYRQAPGKERELVAAITWTGGSTYYADSVKGRFTISRDNAKNTVYLQMNSLKPEDTAVYYCAAYKTYAVKYYWGQGTQVTVSS | high polyreactivity |
| QVQLVESGGGLVQAGGSLRLSCAASGNTFGRYAMGWSRQAPGKERELVASIRGSSVRTFYADSVKGRFTISRDNAKNTVYLQMNSLKPEDTAVYYCAKRGYAYPSSYDSWGQGTQVTVSS | high polyreactivity |
| QVQLVESGGGLVQAGGSLRLSCAASGRIFRSNGMGWCRQAPGKERELVAVITPRSGTTSYADSVKGRFTISRDNAKNTVYLQRNSLKPEDTAVYYCAADSDWYPSPYDYWGQGTQVTVSS | high polyreactivity |
| QVQLVESGGGLVQAGGSLRLSCAASGSIFKSYAMGWYRQAPGKERELVAAISGSGGRTYYADSVKGRFTISRDNAKNTAYLQMNSLKPEDTAVYYCNALASIRTHTGYAYSPPYDYWGQGTQVTVSS | high polyreactivity |
| QVQLVESGGGLVQAGGSLRVSCAASGFTFNYYAMGWYRQAAGKERELVAAISKDGTRTYYADSVKGRFTISRDNAKNTVYLQMNRQKPEDTAVYYCAAKASPAGSNYWGQGTQVTVSS | high polyreactivity |
| QFQLVESGGGLVQAGGSLRLSCASSGSIFWYYAMGWYRQAPGKERELVATITSGGRTDYADSVKGRFTISRDNAKNTVYLQMNSLKPEDTAVYFCAAGPRWRPRSYDYWGHGTQVTVSS | high polyreactivity |
| QVQLVESGGGLVQAGGSLRLSCAASGYIFVYYVMGWYRQAPGKERELVTAIDGNGVSTYYADSVKGRFSISRDNAKYSVYLQMNSLKPDDTAVYYCAADYLYHQTSRGKYYSWGQGTQVTVSS | low polyreactivity |
| QVQLEDSGGGLVQAGGSLRLSCAASGFIFLPNAMGWYRQAPGKERELVAAISTSDGSTYYADSVKGRFTISRDNAKNTVYLQMNSLKPEDTAVYYCAASYQFYRKYAYDYWGQGTQVTVSS | low polyreactivity |
| QVQLVESGGGLVQAGGSLRLSCAASGNIFYYNAMGWYRQAPGKETELVADITWSGGSTYYADSVKGRFTISRDNAKNTVDLQMNSLKPEDTAVYYCADETFGYHRGRIADDYEYWGQGTQVTVSS | low polyreactivity |
| QDQLVESGGGLVQAGGSLRLSCAASGFTFGDYAMGWYRQEPGKERELVAAISWSGSNTYYADSVKGRFTISRDNAKNTVYLQMNSLKPEDTAVYYCNADYDPEDMDYWGQGTQVTVSS | low polyreactivity |
| QVQLVESGGGLVQAGGSLRLSCAASGFIFRSYAMGWYRQAPGKEREFVAAITTRGTGTYYADSVKGRFTISRDNAKNTVYLQMNSLKPEDTAVYDCAARRGWGDDYWGQGTQVTVSS | high polyreactivity |
| QVQLVESGGGLVQAGGSLRLTCPASGSTFHGYDMGCYRQAPGKERELVAAITSSGDDTYYADSVKGRFTISRDNAKNTVYLQMNSLKPEDTAVYYCAAEYTEGYTHDYWGQGSQVTVSS | low polyreactivity |
| QVQLVESGGGLVQAGGSLRLSCAASGSTFTSNVMGWYRQAPGKERELVAAISTNGGRTYYADSVKGRFTISRDNAKNTVYLQMNSLKPEDTAVYYCAASLPRPGIGGRDYWGQGTQVTVSS | low polyreactivity |
| QVQLVESGGCLVQAGGSLRLSCAASGSIFLTYAMGWYIQAPGKERELVASSTGGGSTNYADSVKGRFTSSRDNAKNTVYLQRNSLKPEDTAVYYCAKKAIVSDQWDKYDYWGQGTQVTVSS | low polyreactivity |
| QVQLVESGGGLVQAGGSLRLSCAASGRIFNYNTMGWYRQAPGKERELVAAINFSGDRTYYADSVKGRFTISRDISKNTVYLQMNSLKPEDTAVYYCAAQGYWYGYQPGNYWGQGTQVTVSS | high polyreactivity |
| QVQLVESGGGLVQAGGSLRISCAASGFTFDTNAMGWYRQAPGKERELVAAISRIGGRTYADSVKGRFTISRDNAKNTVYLQMNSLKPEDTAVYYCADDRSSAYRWRSAGYYKYDYWGQGTQVTVSS | low polyreactivity |
| QVQLVESGGGLVQAGGSLRLSCAASGSIFPYYTMGWYRQAPGKERELVAAITTSDSSTYYADSVKGRFTISRDNAKNTVYLQMNSLKPEDTAVYYCAARYSLYPYYAYDDAYRLYRLRGRDYWGQGTQVTVSS | low polyreactivity |
| QVQLVESGGGLVQAGGSLRLSCAASGIIFDYNAMGWYRQAPGKERELVAAISSSGGSTYYADSVKGRFTLSRDNAKNTVYLLMTSLKPEDTAVYYCAAAPRFRGYDYWGQGTQVTVSS | high polyreactivity |
| QVQLVESGGGLVQAGGSLRLSCAASGRTFWGYAMGWYRPAPGKERELVAAISSGGDTTYADSVKGRFTISRDNAKNTVYLQMNSLKPEDTAVFYCAADRWYSRYTRYGYWGQGTQVTVSS | low polyreactivity |
